From publication PMC3953818, “Characterization and regulation of an additional actin-filament-binding site in large isoforms of the stereocilia actin-bundling protein espin” (Journal of Cell Science, 2014)
Read-outs that look alike come from different tables or passages of the source. Each block holds one molecule with its values, some of them ahead of it.

How the values were obtained:
F-actin [1] = biological target: F-actin (UniProt P68133); details: cited from earlier work
[2] = biological target: His-tagged ankyrin repeat domain (M1-R339 of human espin 1) (human) (UniProt B1AK53); assay: pull-down; competition: the same pull-down of His–(1-339) on glutathione beads loaded with GST–(340-854), without or with synthetic peptide at 30 µM
F-actin [3] = biological target: F-actin (UniProt P68133); details: cited from earlier work; remark: listed apart in the source
F-actin [4] = biological target: F-actin (UniProt P68133); details: cited from earlier work; remark: listed apart in the source
[5] = biological target: preformed filaments of rabbit skeletal muscle actin (rabbit) (UniProt P68135); assay: co-sedimentation; purified GST fusion proteins incubated with preformed filaments of rabbit skeletal muscle actin (0.4 mg/ml) for 60 min at 37°C in 10 mM HEPES, 0.1 M KCl, 1 mM dithiothreitol, 0.5 mM ATP, 1 mM MgCl2, 1 mM NaN3, pH 7.4; 150,000 g for 60 min at 4°C; pellet and supernatant on Coomassie-stained SDS gels
monomeric actin (rabbit) = monomeric actin (rabbit) (UniProt P68135)
[6] = biological target: T1, GST–(340-854) human espin 1 fragment missing the V462-K487 xAB-containing peptide (human, UniProt B1AK53 340-854, missing the V462-K487 xAB-containing peptide (ΔxAB)); assay: pull-down; His-tagged ankyrin repeat domain incubated with glutathione-Sepharose beads preloaded with GST or GST–human espin 340–854 fragment in 5 mM HEPES, 10 mM imidazole, 0.1 M KCl, 1 mM dithiothreitol, 3 mM NaN3, pH 7.4, 60 min at 22°C; five washes at 4°C; Coomassie-stained SDS gels; details: both partners purified
T1 construct: human espin 1, residues D340-Y854 with V462-K487 deleted; also called ΔxAB; source: E. coli BL21 Star (DE3), purified (glutathione-Sepharose 4B), loaded on glutathione beads
T1 sequence (looked up): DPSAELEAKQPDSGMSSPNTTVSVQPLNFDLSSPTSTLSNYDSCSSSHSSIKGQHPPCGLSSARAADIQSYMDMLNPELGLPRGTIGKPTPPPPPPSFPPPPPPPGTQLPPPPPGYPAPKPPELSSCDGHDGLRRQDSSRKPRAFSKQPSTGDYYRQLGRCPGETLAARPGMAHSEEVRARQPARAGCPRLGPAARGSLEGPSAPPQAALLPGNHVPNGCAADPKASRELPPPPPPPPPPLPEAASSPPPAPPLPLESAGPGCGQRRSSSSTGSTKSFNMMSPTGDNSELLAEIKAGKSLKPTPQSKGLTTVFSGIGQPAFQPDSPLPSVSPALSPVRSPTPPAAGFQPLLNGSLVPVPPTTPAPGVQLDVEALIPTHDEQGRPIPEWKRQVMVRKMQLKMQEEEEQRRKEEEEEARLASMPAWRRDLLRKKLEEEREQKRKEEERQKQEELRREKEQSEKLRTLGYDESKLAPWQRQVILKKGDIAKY

Molecule: espin 1 ΔN338 ΔN338 (from UniProt Q63618)
- Kd (F-actin [1]): 70 nM

- percent of the His–ankyrin repeat domain still bound to GST–340-854 with 30 µM M3 [2]: 8%
Molecule: MYO3A tail homology domain I peptide (M3)

Molecule: espin smallest isoform (from UniProt Q63618)
- Kd (F-actin [3]): 220 nM

Molecule: espin 1 339-720 (from UniProt Q63618)
- Kd (F-actin [4]): 1000 nM

- percent of the fusion protein recovered in the high-speed pellet with F-actin [5]: 42%
- inhibition of the rate of pyrene-actin polymerization relative to the GST control, concentration series up to 5 µM (monomeric actin (rabbit)): 11%
Molecule: GST fusion with peptide V130-K155 of rat espin 2B (domain or fragment)

- binding result [6]: binds
B1: His-tagged ankyrin repeat domain (M1-R339 of human espin 1) (domain or fragment, UniProt B1AK53 1-339, looked up)
chain: MALEQALQAARQGELDVLRSLHAAGLLGPSLRDPLDALPVHHAARAGKLHCLRFLVEEAALPAAARARNGATPAHDASATGHLACLQWLLSQGGCRVQDKDNSGATVLHLAARFGHPEVVNWLLHHGGGDPTAATDMGALPIHYAAAKGDFPSLRLLVEHYPEGVNAQTKNGATPLYLACQEGHLEVTQYLVQECGADPHARAHDGMTPLHAAAQMGHSPVIVWLVSCTDVSLSEQDKDGATAMHFAASRGHTKVLSWLLLHGGEISADLWGGTPLHDAAENGELECCQILVVNGAELDVRDRDGYTAADLSDFNGHSHCTRYLRTVENLSVEHRVLSR
notes: human espin 1, ankyrin repeat domain, residues M1-R339; Expressed from ProEX HTa or HTb; also called His–(1-339); His–ankyrin repeat domain; source: E. coli BL21 Star (DE3), purified (Ni-NTA agarose); not shown: His tag, N-terminal, kept
